# Results taken from US20150224182A1 (UNIVERSITY OF VIRGINIA PATENT FOUNDATION, published 2015).
# Non-standard residues stand in square brackets, D forms with d. No end group written: not given here. pT = C[C@@H](OP(=O)(O)O)[C@H](N)C(=O)O; pS = N[C@@H](COP(=O)(O)O)C(=O)O
# B1: phosphopeptide RPAtGGPGVA (no gene name in Table 7; Unknown protein) (peptide)
# peptide: RPA[pT]GGPGVA
# B2: KLF2 phosphopeptide RPPPPPDtPP (peptide)
# peptide: RPPPPPD[pT]PP
# B3: ATXN2L phosphopeptide SPAsPKISL (peptide)
# peptide: SPA[pS]PKISL
# B4: TLK1 phosphopeptide RPNsPSPTAL (peptide)
# peptide: RPN[pS]PSPTAL
# B5: C6orf64 phosphopeptide RPAsARAQPGL (peptide)
# peptide: RPA[pS]ARAQPGL
# B6: HIVEP2 phosphopeptide RPVsPGKDI (peptide)
# peptide: RPV[pS]PGKDI
# B7: MACF1 phosphopeptide KPRsPDHVL (peptide)
# peptide: KPR[pS]PDHVL
# B8: TBC1D10C phosphopeptide KPQTRGKtF (peptide)
# peptide: KPQTRGK[pT]F
# notes: also called Carabin
# B9: TSC22D4 phosphopeptide RPsSPALYF (peptide)
# peptide: RP[pS]SPALYF
# B10: KIAA0889 phosphopeptide RSGsLERKV (peptide)
# peptide: RSG[pS]LERKV
# notes: also called C20orf117
# B11: IP6K1 phosphopeptide RSEsKDRKL (peptide)
# peptide: RSE[pS]KDRKL
# B12: C17orf85 phosphopeptide RPHsPEKAF (peptide)
# peptide: RPH[pS]PEKAF
# B13: PPP1CA phosphopeptide RPItPPRNSA (peptide)
# peptide: RPI[pT]PPRNSA
# B14: SKI phosphopeptide RPWsPAVSA (peptide)
# peptide: RPW[pS]PAVSA
# B15: RBM15 phosphopeptide RSLsPGGAA (peptide)
# peptide: RSL[pS]PGGAA
# B16: RPR(sLss)PTVTL (peptide)
# peptide: RPRSLSSPTVTL
# modifications: also: one of Ser4, Ser6, Ser7 phosphorylated
# notes: From E3 ubiquitin-protein ligase NEDD4-like, UniProt Q96PU5
# B17: KLMAPDIsL (peptide)
# peptide: KLMAPDI[pS]L
# B18: YQLsPTKLPSI (peptide)
# peptide: YQL[pS]PTKLPSI
# notes: From Nibrin/cell cycle regulatory protein p95, UniProt O60934
# B19: RTYsGPMNKV (peptide)
# peptide: RTY[pS]GPMNKV
# notes: From POF1B, UniProt Q8WVV4
# B20: RLAsLNAEAL (peptide)
# peptide: RLA[pS]LNAEAL
# notes: From Bromo adjacent homology domain-containing 1 protein, UniProt Q8TBE0
# B21: RQIsFKAEV (peptide)
# peptide: RQI[pS]FKAEV
# notes: From Ubiquitin-conjugating enzyme E2 J1, UniProt Q9Y385
# B22: KMDsFLDMQL (peptide)
# peptide: KMD[pS]FLDMQL
# B23: KMYsEIDIKV (peptide)
# peptide: KMY[pS]EIDIKV
# notes: From 116 kDa U5 small nuclear ribonucleoprotein component, UniProt Q15029
# B24: VLMK(sPs)PAL (peptide)
# peptide: VLMKSPSPAL
# modifications: also: one of S5 or S7 phosphorylated
# notes: From YTHDC2, UniProt Q9H6S0
# B25: KVLsTEEMEL (peptide)
# peptide: KVL[pS]TEEMEL
# notes: From Protein FAM128B, UniProt Q6NZ67
# B26: KVAsLLHQV (peptide)
# peptide: KVA[pS]LLHQV
# B27: MLAEsPSVPRL (peptide)
# peptide: MLAE[pS]PSVPRL
# notes: From Putative uncharacterized protein, UniProt Q8WUC7
# B28: RQAsLSISV (peptide)
# peptide: RQA[pS]LSISV
# notes: From Protein kinase 2D, UniProt A0JLT6
# Target: T1, HLA-B*0702 (human)
# T1 construct: also called HLA-B7
# Assay: HLA-B7 eluate MS; ALL1; 1 means <1 copy/cell
# From the text: The mixture was subjected to centrifugation and the resulting supernatant was passed over protein A sepharose pre-loaded with the HLA-A2-specific antibody BB7.2 or HLA-B7-specific antibody ME1. Peptides were eluted from the purified class I MHC molecules with 10% acetic acid.
row,Binder,binding result
1,B1,binds
2,B2,binds
3,B3,binds
4,B4,binds
5,B5,binds
6,B6,binds
7,B7,binds
8,B8,binds
9,B9,binds
10,B10,binds
11,B11,binds
12,B12,binds
13,B13,binds
14,B14,binds
15,B15,binds

# Target: T2, HLA-A*0201 (human)
# T2 construct: also called HLA-A2
# Assay: listed as presented with class I MHC on cancer cells (leukemia or transformed B cells)
row,Binder,binding result
1,B16,binds
2,B17,binds
3,B18,binds
4,B19,binds
5,B20,binds
6,B21,binds
7,B22,binds
8,B23,binds
9,B24,binds
10,B25,binds
11,B26,binds
12,B27,binds
13,B28,binds
